In paper PMC10696041 one finds response and percent of parent (% binding / WT) data, which are given here for three substances.

The test concerns the target mini-procollagen III. The experiment in a line: SPR. The note with it: 50 nM CUB1CUB2*, read off a plot; for response: immobilized mini-procollagen III (437 RU), parent: est. 31; for percent of parent (% binding / WT): immobilized mini-procollagen III (437 and 651 RU), parent: est. 100.

Sequence of CUB1CUB2* domains of PCPE-2, WT (from MBP-CUB1CUB2, MBP removed) (Q9UKZ9 whole entry, looked up, stated change not applied, tested part not stated): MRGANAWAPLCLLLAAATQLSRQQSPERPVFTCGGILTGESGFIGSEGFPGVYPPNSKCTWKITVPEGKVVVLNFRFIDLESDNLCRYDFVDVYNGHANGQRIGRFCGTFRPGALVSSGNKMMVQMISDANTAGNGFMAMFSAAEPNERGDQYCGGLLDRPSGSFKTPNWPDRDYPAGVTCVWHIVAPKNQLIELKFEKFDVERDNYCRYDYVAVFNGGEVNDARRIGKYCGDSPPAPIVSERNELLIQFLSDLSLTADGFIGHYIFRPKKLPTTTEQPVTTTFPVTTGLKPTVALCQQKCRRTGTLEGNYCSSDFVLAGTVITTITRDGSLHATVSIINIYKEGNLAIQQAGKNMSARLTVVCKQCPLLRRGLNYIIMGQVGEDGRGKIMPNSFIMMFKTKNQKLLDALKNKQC

For the substance “CUB1CUB2* domains of PCPE-2, WT (from MBP-CUB1CUB2, MBP removed) (from UniProt Q9UKZ9) F87A”, the response is 1 RU and the percent of parent (% binding / WT) is 2.

As to “CUB1CUB2* domains of PCPE-2, WT (from MBP-CUB1CUB2, MBP removed) (from UniProt Q9UKZ9) K46A; E197A; R220A”, the response stood at 8.5 RU and the percent of parent (% binding / WT) was 22.

As to “CUB1CUB2* domains of PCPE-2, WT (from MBP-CUB1CUB2, MBP removed) (from UniProt Q9UKZ9) R150A”, the response amounted to 27 RU and the percent of parent (% binding / WT) came to 97.
